Test [1] deals with CEACAM-binding Opa protein (OpaCEA) from N. gonorrhoeae, expressed in E. coli (E. coli OpaCEA) (Neisseria gonorrhoeae).
For test [2], the target named is AfaE-III adhesin of uropathogenic E. coli strain A30 (E. coli AfaE-III) (E. coli (uropathogenic strain A30)).

Turning to “GFP-tagged amino-terminal IgV-like domain of human CEA (CEA-N) (domain or fragment)”, the bacteria recovered from the urogenital tract 24 h after vaginal infection, CEAtg mice (human CEA on mucosal surfaces) against wildtype mice in test [1] was greater than 30 fold; in test [2], greater than 80 fold.
